B1: Gamma-crystallin S (Homo sapiens), P22914 (parent)
chain: MSKTGTKITFYEDKNFQGRRYDCDCDCADFHTYLSRCNSIKVEGGTWAVYERPNFAGYMYILPQGEYPEYQRWMGLNDRLSSCRAVHLPSGGQYKIQIFEKGDFSGQMYETTEDCPSIMEQFHMREIHSCKVLEGVWIFYELPNYRGRQYLLDKKEYRKPIDWGAASPAVQSFRRIVE
partner: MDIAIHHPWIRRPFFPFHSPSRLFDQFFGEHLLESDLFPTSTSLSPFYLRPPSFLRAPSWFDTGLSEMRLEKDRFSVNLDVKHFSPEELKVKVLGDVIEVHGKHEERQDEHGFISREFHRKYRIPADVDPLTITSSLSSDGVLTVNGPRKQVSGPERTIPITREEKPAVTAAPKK

Variants of: B1
Settings: with cryab_human CRYAB

Row | effect of a mutation on the interaction | Variant
1 | increasing interaction strength | G18V
